Measured values from patent US20210255174.

Tested on: SNAPtide (FITC/DABCYL), List Biological Laboratories product #521

Question: Which “Km of SNAPtide hydrolysis, bead-immobilized BoNT/A (bead based ALISSA)” value does the source give for “BoNT/A complex (intact BoNT/A toxin complex, Metabiologics)” here?
Answer: bead based ALISSA: typical Km=0.2 µM

Question: And the “Km of SNAPtide hydrolysis, free BoNT/A (non-bead based assay)” value?
Answer: non-bead based assay: typical Km=0.7 µM
